Measurements published in PMC10395824 (PLOS Pathogens, 2023).

Molecular target: SARS-CoV-2 S1 RBD2 (Wuhan RBD, S-protein amino acids 319-541) (SARS-CoV-2 Wuhan, UniProt P0DTC2)
Experiment: […] (150 mM NaCl, 20 mM Tris pH 7.5); […], MES pH 5.5, […]
Settings: both partners purified

B1: Fab ICO-hu23 (Fab, V domains shown)
VH: EVQLVQSGAEVKKPGASVKVSCKASGYTFTGYYFHWVRQAPGQGLEWMGWINPISGGTKYAQKFQGWVTMTRATSISTVYMEVSRLRSDDTAVYYCARGHTYNWNYAYCDYWGQGTLVTVSS
VL: SYVLTQPASVSGSPGQSITISCTGTSSDVGVYNYVSWYQQHPGKAPKLMIYDVSNRPSGVSNRFSGSKSGNTASLTISGLQAEDEADYYCSSYTSSSTLVFGGGTKLTVL
Does B1 bind?
Result: binds
